This note sets out measurements from US20210340233A1 (CRESCENDO BIOLOGICS, published 2021).

For orientation: Kd means the constant that tells how readily two partners part at equilibrium. By koff is commonly meant the first-order rate constant of dissociation. Higher therefore signals fast dissociation. For orientation: kon means the rate constant with which the complex forms. Read a high kon as fast association.

For assay [1], the target named is T1, Human Serum Albumin (HSA) (human, UniProt P02768 25-609).
T1 construct: Recombinant HSA from Sigma A9731 is named only for immunisation
The experiment in a line: BIAcore (Affinity), pH5; pH 5. (In general: SPR reads the build-up and loss of mass on a sensor chip optically.)

Assay [2] concerns the target T2, Cyno Serum Albumin (CSA) (cynomolgus, UniProt A2V9Z4 25-608).
T2 construct: Bought protein; also called cynomolgus serum albumin
Description: BIAcore (Affinity), pH5; pH 5.

Assay [3] deals with T1, Human Serum Albumin (HSA). Description: BIAcore (Affinity), pH7; pH 7.
For assay [4], the target named is T2, Cyno Serum Albumin (CSA). Description: BIAcore (Affinity), pH7; pH 7.
The target of assay [5] is mouse serum albumin (MSA) (mouse, UniProt P07724 25-608). The experiment in a line: BLI (Octet RED384), albumin amine-coupled to AR2G biosensor. (In general: In BLI a coated tip is dipped into the sample, and binding shifts an interference pattern.)
Sequence of mouse serum albumin (MSA) (P07724 25-608 limits assumed): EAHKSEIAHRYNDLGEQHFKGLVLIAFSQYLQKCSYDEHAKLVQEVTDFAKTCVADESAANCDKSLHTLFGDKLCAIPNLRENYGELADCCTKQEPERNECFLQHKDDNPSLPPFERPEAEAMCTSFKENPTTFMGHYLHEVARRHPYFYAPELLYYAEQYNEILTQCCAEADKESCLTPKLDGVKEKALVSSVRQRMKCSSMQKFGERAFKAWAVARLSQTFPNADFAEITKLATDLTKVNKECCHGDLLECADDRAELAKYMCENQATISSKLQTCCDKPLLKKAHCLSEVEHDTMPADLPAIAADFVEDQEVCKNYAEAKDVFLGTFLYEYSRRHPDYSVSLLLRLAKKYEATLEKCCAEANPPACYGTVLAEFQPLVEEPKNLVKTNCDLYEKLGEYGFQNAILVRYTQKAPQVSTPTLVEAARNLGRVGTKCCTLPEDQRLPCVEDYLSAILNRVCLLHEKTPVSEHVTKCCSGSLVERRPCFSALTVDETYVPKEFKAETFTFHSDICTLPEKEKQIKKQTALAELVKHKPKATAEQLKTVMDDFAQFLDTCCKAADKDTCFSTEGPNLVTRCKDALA
Description: (§1) Binding studies with human, cyno and mouse serum albumin were carried out using the FortéBio OCTET RED384 instrument. Serum albumin (HSA, CSA, MSA) were coupled to AR2G biosensors by amine coupling using the amine reagent coupling kit (2nd generation, FortéBio). Briefly AR2G biosensors were rehydrated in water and then activated using EDC/sNHS reagents over 10 minutes. The activated biosensors were dipped into wells containing diluted serum albumin (HSA, CSA, MSA) to 10 ug/ml in 10 mM sodium acetate pH 5.0 for 10 minutes before free active sites were quenched using 1M Ethanolamine pH 8.5 over 10 minutes. These were then dipped into 10 mM glycine pH 2.5 to stabilise the surface. […] Anomalous or poorly fitting curves were excluded from the analysis.
The target in assay [6] is T1, Human Serum Albumin (HSA). Description: BLI (Octet RED384), albumin amine-coupled to AR2G biosensor, 1:1 model.
Description: as §1
Assay [7] addresses T2, Cyno Serum Albumin (CSA). The assay is described as above.
Description: as §1

B1: Variant of SEQ ID NO. 1 with E111→D and R115→Q (VHH)
VHH: EVQLVESGGGLVQPGRSLRLSCAASGFTFHHYAMHWVRQAPGKGLEWVSGISWNGNKITYADSVKGRFTISRDNAKNSLYLQMNSLRAEDTALYYCVRDSSLFIVGAPTFDHWGQGTLVTVSS
notes: Human single VH domain
Consider B1, for which the Kd in assay [1] was found to be 13 nM; with Cyno Serum Albumin (CSA) [2] it was 99 nM; in assay [3] it was 6 nM; with Cyno Serum Albumin (CSA) [4] it was 67 nM. The koff in assay [1] was 0.00319 s⁻¹; in the assay with Cyno Serum Albumin (CSA) [2], 0.0241 s⁻¹; in assay [3], 0.00162 s⁻¹; with Cyno Serum Albumin (CSA) [4], 0.0168 s⁻¹. Also, the kon in assay [1] was 242000 M⁻¹ s⁻¹; in the assay with Cyno Serum Albumin (CSA) [2], 244000 M⁻¹ s⁻¹; in assay [3], 255000 M⁻¹ s⁻¹; with Cyno Serum Albumin (CSA) [4], 250000 M⁻¹ s⁻¹.

B2: Humabody ® 1 (SEQ ID NO. 1) (VHH)
VHH: EVQLVESGGGLVQPGRSLRLSCAASGFTFHHYAMHWVRQAPGKGLEWVSGISWNGNKITYADSVKGRFTISRDNAKNSLYLQMNSLRAEDTALYYCVRDSSLFIVGAPTFEHWGRGTLVTVSS
notes: Human single VH domain antibody from transgenic mice, not camelid; also called Humabody ® 1 VH; Humabody ® 1-ctag
For the molecule B2, the dissociation constant (Kd) was 12 nM in assay [1], 96 nM with Cyno Serum Albumin (CSA) [2], 3 nM in assay [3] and 33 nM with Cyno Serum Albumin (CSA) [4].

B3: trispecific molecule (SEQ ID NO. 17) including Humabody ® 1 (bispecific antibody)
chain: EVQLVESGGGVVQPGRSLRLSCAASGFSFSGYGMHWVRQAPGKGLEWVAYISYDGSNKYYADSVKGRFTISRDNSKNTLYLQMNSLRAEDTAVYYCAKDPAWGLRLGESSSYDFDIWGQGTMVTVSSGGGGSGGGGSGGGGSGGGGSGGGGSGGGGSEVQLVESGGGLVQPGGSLRLSCAASGFTLSNYWMNWVRQAPGKGLEWVANINQDGSERYYVDSVKGRFTISRDNAKNSLYLQMNSLRAEDTAVYYCARGGEGYGVDHYGLDVSGQGTTVTVSSGGGGSGGGGSGGGGSGGGGSGGGGSGGGGSEVQLVESGGGLVQPGRSLRLSCAASGFTFHHYAMHWVRQAPGKGLEWVSGISWNGNKITYADSVKGRFTISRDNAKNSLYLQMNSLRAEDTALYYCVRDSSLFIVGAPTFEHWGRGTLVTVSSGGGGSGGGGSGGGGSGGGGS
notes: 1 at the C-terminal end; also called trivalent compound; trivalent construct
On to B3, for which the binding result in assay [5] is recorded as “no binding (tested: top concentration 1500 nM)”. In assay [6], the Kd came to 4.83 nM, the koff is 0.00108 s⁻¹ and the kon turned out to be 238000 M⁻¹ s⁻¹. Further, in the assay with Cyno Serum Albumin (CSA) [7], the Kd was 102 nM, the koff is 0.0147 s⁻¹ and the kon was determined as 144000 M⁻¹ s⁻¹.
